This is an account of results in paper PMC9742495.

The target of this series is Sar (PXO_RS20790) (Xanthomonas oryzae pv. oryzae PXO99A, UniProt A0A0K0GPT9 1-242). Description: EMSA.

B1: Sar probe (dsDNA)
DNA 1: GGCGTCGAGCGCCAGGC
DNA 2: GCCTGGCGCTCGACGCC
B1: the binding result is on record as “binds”.

B2: hrpG motif (dsDNA)
DNA 1: TTTTGTCCTGGCGTCGGGCGCCAGGCGTCGGCGTC
DNA 2: GACGCCGACGCCTGGCGCCCGACGCCAGGACAAAA
As for B2, the binding result is on record as “binds”.

B3: Sar mutated probe (dsDNA)
DNA 1: GTTCCATCTACTTCACC
DNA 2: GGTGAAGTAGATGGAAC
B3: the binding result is on record as “no binding”.

B4: hrpX motif (dsDNA)
DNA 1: GCTGCATACAATCGTGTGCGCCAGCGAGCTCGGCG
DNA 2: CGCCGAGCTCGCTGGCGCACACGATTGTATGCAGC
Regarding B4, the binding result is on record as “binds”.
